In PMC11912836, “Msh2-Msh3 DNA-binding is not sufficient to promote trinucleotide repeat expansions in Saccharomyces cerevisiae”:

Legend:
[1] = biological target: Msh2-msh6(3MBD) (Saccharomyces cerevisiae) (UniProt P25847+Q03834); test: BLI; details: BLI: 25 mM Tris-HCl pH 7.5, 1 mM EDTA, 100 mM NaCl, 0.1 mg/mL BSA, 1 mM DTT, 0.05% Tween-20; DNA 7.5 nM (30 nM for Msh2-Msh6); temperature not stated; no …
Msh2-Msh6 = Msh2-Msh6 (Saccharomyces cerevisiae, UniProt P25847;Q03834 1-964;1-1242); test: BLI; BLI: 25 mM Tris-HCl pH 7.5, 1 mM EDTA, 100 mM NaCl, 0.1 mg/mL BSA, 1 mM DTT, 0.05% Tween-20; DNA 7.5 nM (30 nM for Msh2-Msh6); temperature not stated; no nucleotide or Mg2+ listed; details: protein: recombinant, copies: 1;1, label: 5' biotin on bottom strand
Sequence of Msh2-Msh6 (P25847 whole entry, chain 1 of 2): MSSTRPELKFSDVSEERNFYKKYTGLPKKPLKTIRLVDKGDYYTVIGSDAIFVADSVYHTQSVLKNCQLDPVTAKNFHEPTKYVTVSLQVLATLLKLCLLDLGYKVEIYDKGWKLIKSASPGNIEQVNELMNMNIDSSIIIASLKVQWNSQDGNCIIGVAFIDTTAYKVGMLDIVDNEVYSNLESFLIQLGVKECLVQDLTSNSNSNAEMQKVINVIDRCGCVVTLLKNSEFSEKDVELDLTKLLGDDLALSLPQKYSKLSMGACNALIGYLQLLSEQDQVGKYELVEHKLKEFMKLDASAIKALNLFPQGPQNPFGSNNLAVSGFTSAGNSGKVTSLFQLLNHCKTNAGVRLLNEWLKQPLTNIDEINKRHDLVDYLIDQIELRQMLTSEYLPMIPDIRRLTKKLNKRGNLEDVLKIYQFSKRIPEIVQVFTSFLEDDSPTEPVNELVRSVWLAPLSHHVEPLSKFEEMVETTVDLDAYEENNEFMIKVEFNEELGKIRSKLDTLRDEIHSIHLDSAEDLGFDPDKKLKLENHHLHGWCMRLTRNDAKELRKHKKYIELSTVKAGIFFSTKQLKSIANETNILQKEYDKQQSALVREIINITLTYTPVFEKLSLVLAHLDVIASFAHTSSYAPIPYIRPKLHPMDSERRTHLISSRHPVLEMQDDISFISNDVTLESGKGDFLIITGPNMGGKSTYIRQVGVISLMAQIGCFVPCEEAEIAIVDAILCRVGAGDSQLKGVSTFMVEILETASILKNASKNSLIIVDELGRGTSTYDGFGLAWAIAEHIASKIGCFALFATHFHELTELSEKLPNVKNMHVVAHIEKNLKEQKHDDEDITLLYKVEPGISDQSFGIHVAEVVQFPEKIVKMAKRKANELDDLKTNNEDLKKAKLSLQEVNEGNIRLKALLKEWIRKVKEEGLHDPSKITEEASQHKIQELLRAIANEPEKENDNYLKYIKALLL
Sequence of Msh2-Msh6 (Q03834 whole entry, chain 2 of 2): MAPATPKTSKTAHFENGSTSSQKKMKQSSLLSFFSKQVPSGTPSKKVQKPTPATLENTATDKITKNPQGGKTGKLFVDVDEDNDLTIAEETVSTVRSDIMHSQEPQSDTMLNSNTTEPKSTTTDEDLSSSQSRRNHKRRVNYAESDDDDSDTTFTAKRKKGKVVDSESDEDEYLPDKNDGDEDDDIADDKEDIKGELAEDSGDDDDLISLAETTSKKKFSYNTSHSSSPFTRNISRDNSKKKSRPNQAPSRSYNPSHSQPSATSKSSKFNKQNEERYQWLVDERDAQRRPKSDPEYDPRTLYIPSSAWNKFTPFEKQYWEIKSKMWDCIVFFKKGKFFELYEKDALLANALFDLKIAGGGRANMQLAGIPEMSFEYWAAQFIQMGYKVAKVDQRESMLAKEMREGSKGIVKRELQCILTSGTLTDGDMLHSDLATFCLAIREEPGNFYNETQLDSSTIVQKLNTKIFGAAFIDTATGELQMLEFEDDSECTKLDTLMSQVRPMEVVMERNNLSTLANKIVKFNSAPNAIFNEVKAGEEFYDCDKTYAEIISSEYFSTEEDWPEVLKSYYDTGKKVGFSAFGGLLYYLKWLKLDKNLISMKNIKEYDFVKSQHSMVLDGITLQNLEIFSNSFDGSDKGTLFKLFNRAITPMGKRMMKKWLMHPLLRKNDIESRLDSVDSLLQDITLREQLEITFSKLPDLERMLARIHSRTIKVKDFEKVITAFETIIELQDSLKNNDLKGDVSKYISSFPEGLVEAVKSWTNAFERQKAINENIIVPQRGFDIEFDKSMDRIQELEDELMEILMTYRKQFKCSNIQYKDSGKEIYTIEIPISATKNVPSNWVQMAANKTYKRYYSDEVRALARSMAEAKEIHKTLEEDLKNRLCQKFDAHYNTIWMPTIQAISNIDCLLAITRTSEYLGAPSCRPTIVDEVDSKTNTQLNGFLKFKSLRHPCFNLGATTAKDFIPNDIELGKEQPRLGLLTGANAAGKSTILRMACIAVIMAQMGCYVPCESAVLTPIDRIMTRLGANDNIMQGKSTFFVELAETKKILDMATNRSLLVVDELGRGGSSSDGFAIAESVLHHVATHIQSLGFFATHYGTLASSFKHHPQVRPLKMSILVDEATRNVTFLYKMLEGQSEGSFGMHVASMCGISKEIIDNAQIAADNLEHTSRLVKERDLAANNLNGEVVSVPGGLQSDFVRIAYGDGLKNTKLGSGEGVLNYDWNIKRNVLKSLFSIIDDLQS

Msh2-Msh3 = Msh2-Msh3 (Saccharomyces cerevisiae, UniProt P25847;P25336 1-964;1-1018); test: as above; details: protein: recombinant, copies: 1;1, label: 5' biotin on bottom strand
Sequence of Msh2-Msh3 (P25847 whole entry, chain 1 of 2): as the sequence (P25847 whole entry, chain 1 of 2) above
Sequence of Msh2-Msh3 (P25336 whole entry, chain 2 of 2): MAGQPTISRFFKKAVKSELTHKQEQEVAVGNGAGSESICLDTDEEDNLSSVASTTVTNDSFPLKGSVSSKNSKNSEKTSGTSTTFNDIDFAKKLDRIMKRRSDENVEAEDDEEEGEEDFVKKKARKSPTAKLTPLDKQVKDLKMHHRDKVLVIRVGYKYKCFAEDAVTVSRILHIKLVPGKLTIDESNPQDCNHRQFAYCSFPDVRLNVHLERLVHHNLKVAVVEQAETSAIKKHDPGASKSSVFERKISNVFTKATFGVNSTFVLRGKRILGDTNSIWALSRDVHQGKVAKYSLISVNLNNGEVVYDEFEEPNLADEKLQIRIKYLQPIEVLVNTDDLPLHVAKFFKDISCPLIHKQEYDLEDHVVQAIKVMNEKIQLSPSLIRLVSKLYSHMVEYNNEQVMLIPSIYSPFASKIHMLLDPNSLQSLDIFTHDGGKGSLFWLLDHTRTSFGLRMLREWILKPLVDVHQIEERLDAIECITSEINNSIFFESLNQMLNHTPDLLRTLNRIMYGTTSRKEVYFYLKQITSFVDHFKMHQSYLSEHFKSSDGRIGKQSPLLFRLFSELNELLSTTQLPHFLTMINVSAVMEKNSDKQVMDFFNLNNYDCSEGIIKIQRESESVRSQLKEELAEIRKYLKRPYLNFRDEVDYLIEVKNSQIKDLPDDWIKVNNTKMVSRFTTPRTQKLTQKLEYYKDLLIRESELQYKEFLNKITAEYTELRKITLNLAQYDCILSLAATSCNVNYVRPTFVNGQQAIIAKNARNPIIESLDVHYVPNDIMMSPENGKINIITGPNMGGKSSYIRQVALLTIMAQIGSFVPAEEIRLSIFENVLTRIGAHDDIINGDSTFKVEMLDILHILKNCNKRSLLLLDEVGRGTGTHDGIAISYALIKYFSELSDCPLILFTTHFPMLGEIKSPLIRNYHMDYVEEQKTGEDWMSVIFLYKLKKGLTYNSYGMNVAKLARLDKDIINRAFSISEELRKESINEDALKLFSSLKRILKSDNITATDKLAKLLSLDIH

[2] = as printed, bottom strand has 1 extra nt (T opposite missing A after CTAGG of top; possible misprint), described as homoduplex
[3] = blunt, extrahelical (CAG)10 quasi-hairpin in top strand
[4] = blunt, 8-nt extrahelical loop in top strand
[5] = blunt, extrahelical (CTG)10 quasi-hairpin in top strand

Sequence of Msh2-msh6(3MBD) (Saccharomyces cerevisiae) (P25847 whole entry, chain 1 of 2): as the sequence (P25847 whole entry, chain 1 of 2) above
Sequence of Msh2-msh6(3MBD) (Saccharomyces cerevisiae) (Q03834 whole entry, chain 2 of 2): as the sequence (Q03834 whole entry, chain 2 of 2) above

“CACGCTACCGAATTCTGACTTGCTAGCTGCTGCTGCTGCTGCTGCTGCTGCTGCTGGACATCTTTGCCCACGTTGACCC / GGGTCAACGTGGGCAAAGATGTCCTAGCAAGTCAGAATTCGGTAGCGTG [(CTG)10 (LS-CTG/LS2-Bio)]” gave a Kd [1] of 1.05 nM.

“CACGCTACCGAATTCTGACTTGCTAGCAGCAGCAGCAGCAGCAGCAGCAGCAGCAGGACATCTTTGCCCACGTTGACCC / GGGTCAACGTGGGCAAAGATGTCCTAGCAAGTCAGAATTCGGTAGCGTG [(CAG)10 (LS-CAG/LS2-Bio)]” gave a Kd [1] of 2.37 nM.

Work on “CACGCTACCGAATTCTGACTTGCTAGGCATCTTTGCCCACGTTGACCC / GGGTCAACGTGGGCAAAGATGTCCTAGCAAGTCAGAATTCGGTAGCGTG [Homoduplex (LS1/LS2-Bio)]” yielded a Kd [1] of 7.16 nM.

For “CACGCTACCGAATTCTGACTTGCTAGGTGTGTGTGACATCTTTGCCCACGTTGACCC / GGGTCAACGTGGGCAAAGATGTCCTAGCAAGTCAGAATTCGGTAGCGTG [+8 loop, (GT)4 (LS8/LS2-Bio)]”, the Kd [1] was 0.872 nM.

B1: Homoduplex (LS1/LS2-Bio) (dsDNA)
DNA 1: CACGCTACCGAATTCTGACTTGCTAGGCATCTTTGCCCACGTTGACCC
DNA 2: GGGTCAACGTGGGCAAAGATGTCCTAGCAAGTCAGAATTCGGTAGCGTG
Work on B1 yielded a Kd (Msh2-Msh6; [2]) of 21 nM and a Kd (Msh2-Msh3; [2]) of 9.22 nM.

B2: (CAG)10 (LS-CAG/LS2-Bio) (dsDNA)
DNA 1: CACGCTACCGAATTCTGACTTGCTAGCAGCAGCAGCAGCAGCAGCAGCAGCAGCAGGACATCTTTGCCCACGTTGACCC
DNA 2: GGGTCAACGTGGGCAAAGATGTCCTAGCAAGTCAGAATTCGGTAGCGTG
B2 was tested, and the Kd (Msh2-Msh6; [3]) was 2.73 nM and the Kd (Msh2-Msh3; [3]) was 1.38 nM.

B3: +8 loop, (GT)4 (LS8/LS2-Bio) (dsDNA)
DNA 1: CACGCTACCGAATTCTGACTTGCTAGGTGTGTGTGACATCTTTGCCCACGTTGACCC
DNA 2: GGGTCAACGTGGGCAAAGATGTCCTAGCAAGTCAGAATTCGGTAGCGTG
Molecule B3 has a Kd (Msh2-Msh6; [4]) of 8.67 nM and a Kd (Msh2-Msh3; [4]) of 2.62 nM.

B4: (CTG)10 (LS-CTG/LS2-Bio) (dsDNA)
DNA 1: CACGCTACCGAATTCTGACTTGCTAGCTGCTGCTGCTGCTGCTGCTGCTGCTGCTGGACATCTTTGCCCACGTTGACCC
DNA 2: GGGTCAACGTGGGCAAAGATGTCCTAGCAAGTCAGAATTCGGTAGCGTG
For B4, the Kd (Msh2-Msh6; [5]) was 3.07 nM and the Kd (Msh2-Msh3; [5]) was 2.25 nM.
